System: cell line AFCA007 Clone A (AF-I)
Assay: Differentiation of cells into multiple endocrine lineages (collagen type I/matrigel transwell culture with growth factors)
Assay type: cell-based, human
Details: 14 days; for expression of HNF-3 beta: DMEM + 5% FBS
Experimental: Cells from the cell line AFCA007 Clone A (AF-I) at passage 8 were embedded in collagen type I (Becton Dickinson, CA) with 1% growth-factor reduced matrigel matrix (Becton Dickinson), and seeded into 6-well transwell insert at 5×10^5 cells per well. The bottom well was seeded with human aortic endothelial cells passage 6 (Cambrex. MD). Cells were cultured with DMEM medium supplemented with 5% FBS and growth factors, which includes Cyclopamine, bFGF, EGF, BMP4-7, Activin A, Exendin 4, FGF4, all-trans retinoic acid and γ-secretase inhibitors for 14 days. Cultures were fed every other day. […] Treatment of cells with BMPs at high concentration, 50 ng/ml, also up-regualted the GATA4 expression.

B1: Activin A: growth factor added to the differentiation medium (protein, UniProt P08476 311-426, looked up)
Inhibin beta A chain: GLECDGKVNICCKKQFFVSFKDIGWNDWIIAPSGYHANYCEGECPSHIAGTSGSSLSFHSTVINHYRMRGHSPFANLKSCCVPTKLRPMSMLYYDDGQNIIKKDIQNMIVEECGCS
modifications: Inhibin beta A chain
notes: growth factor added to the differentiation medium
**Q.** How did the “expression of HNF-3 beta” value turn out when B1 was run?
**A.** The value was “up-regulated”.

B2: BMP4: bone morphogenic protein, growth factor added to the differentiation medium (protein, UniProt P12644 293-408, looked up)
Bone morphogenetic protein 4: SPKHHSQRARKKNKNCRRHSLYVDFSDVGWNDWIVAPPGYQAFYCHGDCPFPLADHLNSTNHAIVQTLVNSVNSSIPKACCVPTELSAISMLYLDEYDKVVLKNYQEMVVEGCGCR
**Q.** For B2, which “expression of HNF-3 beta” value is on record?
**A.** The value was “up-regulated”.

B3: FGF4: growth factor added to the differentiation medium (protein, UniProt P08620 31-206, looked up)
Fibroblast growth factor 4: APTAPNGTLEAELERRWESLVALSLARLPVAAQPKEAAVQSGAGDYLLGIKRLRRLYCNVGIGFHLQALPDGRIGGAHADTRDSLLELSPVERGVVSIFGVASRFFVAMSSKGKLYGSPFFTDECTFKEILLPNNYNAYESYKYPGMFIALSKNGKTKKGNRVSPTMKVTHFLPRL
**Q.** With B3 as the molecule, how does the PDX-1 expression (50 ng/ml) read?
**A.** Its PDX-1 expression is “up-regulation”.
